According to article PMC5667739 (PLoS Pathogens, 2017):

What was measured:
Conditions in all cases: both partners purified
[1] = biological target: T1, GII.10 P domain (Vietnam026) (norovirus GII.10 (Vietnam026)); experiment: ITC
T1 construct: source: E. coli, purified

[2] = biological target: T1, GII.10 P domain (Vietnam026); experiment: ELISA
[3] = biological target: T1, GII.10 P domain (Vietnam026); experiment: ITC; remark: listed apart in the source

Binder | Kd [1] | dH [1] | lowest Nanobody concentration that detected the antigen (direct ELISA) [2] | stoichiometry N [3]
Nano-26 (VHH, also called N26; source: E. coli WK6 (pHEN6C vector), purified) VHH: QVQLQESGGGLVQPGGSLRLSCTAPRIIFFMYDVGWYRQAPEKQRELVAQINSDVSTKYADSVKGRFTISRDNAKRTVYLQMNDLKPEDAAVYYCNVRRASADYWGQGTQVTVSS | 3.2 nM | -10 kcal/mol | 20 ng/mL | 1 Nanobody per P domain monomer
Nano-4 (VHH) VHH: QVQLQESGGGLVQPGGSLRLFCAASGFTFSSYAMRWYRQAPGKERELVAAITSAGGSTHYADSVKERFTISRDNAKNTMYLQMNSLKPEDTAVYYCNARRDYGDSWFTAGGGYWGQGTQVTVSS | 35 nM | -12 kcal/mol | 20 ng/mL | 1 Nanobody per P domain monomer
Nano-14 (VHH, also called N14; source: E. coli WK6 (pHEN6C vector), purified) VHH: QVQLQESGGGLVQSGGSLRLSCAASRNINSMHVVGWYRQAPGNQRELVASITDDGSTDYVDSVKGRFTISRDIAENTVYLQMNSLNPEDTAVYYCKGTIVVFTTPMHYWGKGTQVTVSS | 10.4 nM | -22 kcal/mol | 20 ng/mL | 0.5 Nanobody per P domain monomer
Nano-27 (VHH) VHH: QVQLQESGGGLVQPGGSLRLSCAASGTIFSRNIMGWYRQAPGKERELVASIYSDRSTWYAESVEGRFTISRDNVKNTLYLQMNSLKPEDTAMYYCRDRTLGSWGQGTQVTVSS | 9.5 nM | -8.1 kcal/mol |  | 1 Nanobody per P domain monomer
Nano-32 (VHH) VHH: QVQLQESGGGLVQPGGSLRLSCAASGFTLGYYPIGWFRQAPGKGLEGVSCISGSGGSANYAASVKGRFTISRDNAKNTVYLQMNSLKPEDTAIYYCAADLSSLTTVQAMCVIPRPGFSAKAYDYWGLGTQVTVSS | 60 nM | 5 kcal/mol |  | 1 Nanobody per P domain monomer
Nano-42 (VHH) VHH: QVQLQESGGGLVQPGGSLRLSCAASGSVSRTYVMGWYRQTPGNQRELVATITSVGSTNYADSLKGRFTISRENAENTVYLQMNSLKPEDTAIYYCKYIRYSPIHAPLDYWGQGTQVTVSS | 0.809 nM | -9.84 kcal/mol | 20 ng/mL | 1 Nanobody per P domain monomer
